Data on 167 variants can be found in the RNAGym collection of RNA variant scans (doi:10.1093/nar/gkz1192).

B1: CPEB3 Ribozyme (parent)
chain: UAACAGGGGGCCACAGCAGAAGCGUUCACGUCGCAGCCCCUGUCAGAUUCUGGUGAAUCUGCGAAUUCUGCUGUAUAUCUC

Variants of B1 are the subject of this data set. The data set is described as follows: self-cleavage, relative activity (ratio to wild type); higher = more cleavage; in vitro, sequencing. Put shortly: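 After error-prone PCR and barcoding, CPEB3 ribozyme mutant libraries were transcribed with T7 RNA polymerase at 37°C for 5 hours, then given 15 min with DNase I before an EDTA stop, and they cleaved during both steps. Reverse transcription with template switching preceded Illumina sequencing. Relative activity divides a variant's cleaved/total read fraction by the unmutated ribozyme's. At least 5 reads were required per variant, and three batches were averaged.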
As to U41G U43A, the self-cleavage was found to be 0.28.
As to U41G U43C, the self-cleavage was determined as 0.33.
The result for G42A U76G reads 0.26.
The result for G42A U76C reads 0.41; that for G42U A77U, 0.37.
For U41G U72A, the self-cleavage is 0.14.
For U41G U72C the value was 0.35; for U41G U72G, 0.41; for G42A U51C, 0.29.
The result for U41G A64G reads 0.26; that for U41G A64U, 0.14.
For U41G A75G the value was 0.18.
Regarding U41G U49C, the self-cleavage was 0.38.
For U41G U51G the value was 0.27.
U41G U51C: the self-cleavage was determined as 0.21.
For U41G U51A the value was 0.37; for U41G U76C, 0.27; for U41G U76A, 0.14.
With U41C U74G, the self-cleavage was determined as 1.21.
The result for U41C U74A reads 1.22.
The result for U41C U74C reads 1.23; that for U41C G70U, 0.5.
The result for U41C G70A reads 0.62; that for U41C U51A, 1.06; that for U41C U51G, 0.81.
Turning to U41C U51C, the self-cleavage worked out at 1.08.
For U41G U66C the value was 0.2; for G42U A64U, 0.13; for G42A A47G, 0.42.
The result for G42A A45G reads 0.3; that for G42A A45C, 0.32.
The result for G42U A56U reads 0.48; that for G42U A56G, 0.49.
With G42U A75G, the self-cleavage came out at 0.19.
The result for G42C U74C reads 0.3.
For G42A A57U the value was 0.18.
The result for G42A A57G reads 0.16; that for U41G U58G, 0.16.
As for U41G U58C, the self-cleavage was found to be 0.18.
For U41G U58A the value was 0.33; for G42C U60C, 0.24; for U41C U54C, 1.03.
On to U41C U54A, for which the self-cleavage was 1.11.
For U41C U54G the value was 0.88; for G42A G53C, 0.29; for U41C U78G, 1.23.
Consider U41C U78C, for which the self-cleavage came out at 1.06.
The result for U41C U78A reads 1.13; that for G42A U48C, 0.33; that for U41G C71G, 0.33.
On to U41G A77U, for which the self-cleavage was 0.36.
For U41G A77G the value was 0.2; for U41G U67C, 0.17; for U41G U67A, 0.2.
Consider U41C U58A, for which the self-cleavage came out at 0.47.
The result for U41C U58C reads 0.58; that for U41C U58G, 0.41.
With U41G U74A, the self-cleavage was determined as 0.37.
The result for U41G U74C reads 0.35; that for G42A U60C, 0.34; that for G42A U60A, 0.3.
For G42A U80A the value was 0.79; for G42A U80C, 0.36.
For G42A G70A the value was 0.19; for G42A G70C, 0.13; for G42A A75G, 0.28.
Turning to G42A U74C, the self-cleavage was 0.64.
On to U41C U60G, for which the self-cleavage came to 0.42.
Turning to U41C U60C, the self-cleavage was found to be 0.55.
For U41C U60A the value was 0.68; for U41G A56U, 0.25; for U41G A56G, 0.22.
For G42A C59G the value was 0.23.
For G42A U69A the value was 0.08.
In the case of U41C U49A, the self-cleavage turned out to be 0.89.
The result for U41C U49C reads 0.5.
The result for G42U A57G reads 0.19; that for G42C U49C, 0.1.
The result for U41G U54G reads 0.23; that for U41G U54C, 0.38; that for G42A A64U, 0.14.
Regarding G42A A64G, the self-cleavage was determined as 0.21.
On to U41G C81U, for which the self-cleavage was determined as 0.33.
In the case of G42A U66C, the self-cleavage was found to be 0.38.
With U41G C44A, the self-cleavage was found to be 0.13.
In the case of U41C U72G, the self-cleavage was found to be 0.92.
Turning to U41C U72C, the self-cleavage stood at 1.11.
With U41C U72A, the self-cleavage came out at 0.79.
For U41G A45G the value was 0.25; for U41G A45U, 0.17; for U41C U67A, 0.53.
The result for U41C U67C reads 0.33; that for U41C U67G, 0.3; that for G42C A57G, 0.25.
The result for G42A C81G reads 0.35; that for G42A C81U, 0.4.
As to G42A U43G, the self-cleavage was 0.32.
For G42A U43C the value was 0.29; for G42U G53A, 0.31; for U41C U80C, 1.04.
As for U41C U80G, the self-cleavage is 1.29.
In the case of U41C U80A, the self-cleavage was 1.15.
For U41G G52C the value was 0.14; for U41G U78G, 0.2; for U41G U78A, 0.26.
With U41G U78C, the self-cleavage came to 0.21.
Take U41G U48C: the self-cleavage was 0.36.
For G42A C79U the value was 0.36.
On to G42A C79A, for which the self-cleavage amounted to 0.33.
For U41G U60A the value was 0.16; for U41G U60C, 0.18.
The result for G42A A56G reads 0.16; that for G42A A56U, 0.28.
On to G42U A47G, for which the self-cleavage was 0.18.
For G42A U67C the value was 0.21.
The result for G42A U67A reads 0.14; that for U41C U66C, 0.49; that for U41C U66G, 0.58.
For U41C U66A the value was 0.62; for U41C U69G, 0.79; for U41C U69C, 0.57.
For the variant U41C U69A, the self-cleavage was 0.67.
The result for U41G A65G reads 0.35; that for G42C U43A, 0.33.
For G42C U43C the value was 0.14.
For G42A U72A the value was 0.18.
Regarding G42A U72C, the self-cleavage was 0.37.
Turning to U41G U69G, the self-cleavage was 0.22.
For U41G U69A the value was 0.36; for U41G U69C, 0.19.
For G42A U58C the value was 0.25.
For G42A U58A the value was 0.21.
U41C U76C: the self-cleavage was found to be 1.05.
For U41C U76G the value was 1.05; for U41C U76A, 1.17.
For G42A U49A the value was 0.21.
The result for U41G A47G reads 0.37; that for U41C G73C, 1.25; that for U41C G73U, 1.28.
Take U41C G73A: the self-cleavage is 1.23.
For G42A U78C the value was 0.21; for G42A C44G, 0.11.
For G42C U72C the value was 0.21; for U41G, 0.29.
For G42U U43A the value was 0.54; for G42U U43C, 0.43.
U41C U48C: the self-cleavage is 0.71.
For U41C U48A the value was 0.6; for U41C U48G, 0.55.
Turning to U41G A57C, the self-cleavage was 0.11.
On to U41G A57G, for which the self-cleavage worked out at 0.23.
The result for G42C U48A reads 0.13.
For U41C U43A the value was 0.72.
Regarding U41C U43C, the self-cleavage amounted to 0.46.
The result for G42A A77U reads 0.39.
For G42U the value was 0.31; for G42A, 0.34; for G42C, 0.51.
For G42A A65U the value was 0.3; for G42A A65C, 0.24.
Turning to G42A A65G, the self-cleavage turned out to be 0.42.
Take G42A U54C: the self-cleavage worked out at 0.57.
For G42A U54A the value was 0.45; for U41G U80C, 0.29.
For U41G U80A the value was 0.26; for G42A G63U, 0.35.
The result for G42A G55U reads 0.08.
